# Legend:
# eEF2 = assay: In vitro ADP-ribosylation assay in cell lysates with biotin-NAD+; format: biochemical, human
# Method: A biochemical assay was next performed to test the ability of tagraxofusp to catalyze ADP-ribosylation in cellular lysates in the presence of exogenous biotin-tagged […] (NAD) as a source of ADP-ribose.
# To determine the biochemical mechanism of SL-401 resistance and restoration of sensitivity upon non-cytotoxic treatment with azacitidine, an in vitro ADP-ribosylation assay was developed to perform lysates harvested from human leukemia cells. Briefly, 50 μg of cell lysates were harvested and mixed with 5 uM NAD+-Biotin (R&D Systems; 4670-500-01), in the presence or absence of 100 ng of SL-401 (or DT) in 35 uL of reaction buffer containing 20 mM Tris-HCl pH 7.4, 1 mM EDTA, and 50 mM DTT. The mixture is incubated for 15 minutes at room temperature and then the reaction is halted by boiling in SDS loading buffer. An SDS polyacrylamide gel is run and proteins are transferred to a PVDF membrane as in a Western blot. Protein levels are determined by traditional western blot. ADP-ribosylation of target proteins is detected by streptavidin-HRP (Abcam ab7403). […] Top blot is ADP-ribose, presumably on eEF2 (band is at same position as eEF2 protein detected by antibody); next, are levels of eEF2, DPH1, and beta-actin protein.
# CAL1 and THP1 cells = assay: Short-term cytotoxicity of azacitidine in parental and SL-401 resistant cells; format: cell-based, human
# Method: Next, it was tested if azacitidine cooperated with tagraxofusp in AML and BPDCN cells. First, given that azacitidine acts as a cytotoxic chemotherapy at higher doses, experiments were performed to determine whether tagraxofusp-resistant cells were more sensitive to short-term treatment, similar to what was described above (FIGS. 6-8).
# DPH1 = assay: Quantitative RT-PCR and Western blot for DPH1; format: cell-based, human
# [1] = tested on: BPDCN patient-derived xenografts; format: in vivo, mouse; conditions: for time to progression of peripheral blood leukemia burden: two cycles
# DPH1 locus = assay: Bisulfite pyrosequencing of DPH1 locus CpG sites; format: cell-based, human; conditions: azacitidine 300 nM, 2 days on/2 days off over 2 weeks; resistant cells
# Method: DPH1 expression is known to be regulated by DNA methylation and sensitivity to Pseudomonas exotoxin A was previously shown to be modulated by CpG methylation in the DPH1 locus. To test whether loss of DPH1 is mediated by DNA methylation, bisulfite pyrosequencing of the DPH1 locus in CpG islands (30 individual CpG sites) was performed by EpigenDx analysis (available on the World Wide Web at epigendx.com/d/service/pyrosequencing/) and the % methylated cytosine at each CpG site was quantitated. This analysis was performed in THP1 parental and 2 SL-401 resistant subclones, and CAL1 parental and 2 SL-401 resistant subclones. Data plotted in FIG. 12 are from THP1 cells, and are representative of CAL1. […] Given this finding, it was believed that 5-azacitidine, a DNA methyltransferase inhibitor or “DNA hypomethylating agent” can reverse the aberrant DPH1 hypermethylation and restore DPH1 expression. The parental and resistant cells were also treated with non-cytotoxic, low doses of azacitidine, so called “epigenetic dosing” (300 nM, 2 days on/2 days off) over 2 weeks to determine if the hypermethylation was reversible by DNA methyltransferase inhibition.
# [2] = tested on: CAL1, SHI1, and THP1 parental and tagraxofusp-resistant cells; assay: MTT viability after conventional chemotherapy (cytarabine, vincristine); format: cell-based, human; conditions: SL-401 resistant vs parental CAL1, SHI1, THP1
# Method: CAL1, SHI1, and THP1 parental and tagraxofusp-resistant cells were tested in MTT viability assays after exposure to increasing doses of cytarabine (AraC) or vincristine (VCR).
# [3] = tested on: IL3R (e.g., CD123) positive AML cell lines and primary leukemia cells; conditions: cited from earlier work
# THP1 human AML cells [4] = assay: In situ histochemical ADP-ribosylation assay; format: cell-based; conditions: resistant vs parental THP1
# [5] = tested on: mouse models of human leukemia; conditions: in vivo; cited from earlier work
# THP1 human AML cells [6] = assay: Single cell flow cytometric ADP-ribosylation assay; format: cell-based; conditions: resistant vs parental THP1
# Method: THP1 human AML cells are shown that are parental SL-401 sensitive or SL-401 resistant.
# For example, in another embodiment, a flow ADP ribosylation assay may be used to measure the functional activity of the entire diphthamide synthesis pathway (FIG. 20). […] The cells were stained with antibodies (e.g., CD45-APC, CD123-PE) at concentration of 1:100, incubated for 30 min at 4° C., and then washed with FACS buffer 5 minutes. The cells were fixed with 3% paraformaldehyde (PFA), incubated for 20 min at RT, and washed with PBS for 5 minutes. The cells were permeabilized with Saponin (1:10 in H2O, BD Biosciences-“Perm/Wash” solution) for 20 min at 4° C., washed with PBS for 5 minutes, and applied with endogenous Streptavidin block (BD Biosciences) for 20 min at RT. The cells were then washed with PBS for 5 minutes and applied with endogenous Biotin block (BD Biosciences) for 20 min at RT. The cells were then washed with PBS for 5 minutes and applied with protein block for 30 min at RT. The cells were washed twice with FACS buffer. Each wash was for 5 minutes. SL-401/biotin solution was added to the samples and the samples was incubated for 30 min at RT. […] The cells were washed 5 minutes in FACS buffer, resuspended in 300 μl FACS buffer and level of the ADP was detected with the flow assay.
# [7] = rodents and monkeys; cited from earlier work
# [8] = tested on: parental or tagraxofusp-resistant CAL1 cells; assay: Confocal microscopy of internalization of fluorescently tagged SL-401; format: cell-based, human; conditions: 30-60 minutes after exposure, resistant vs parental cells
# [9] = 14 days from initiation of treatment, vs vehicle
molecule,measurement,setting,value
"Nc1ncn([C@@H]2O[C@H](CO)[C@@H](O)[C@H]2O)c(=O)n1 [azacitidine, 5-azacytidine]",tagraxofusp-mediated ADP ribosylation after azacitidine,eEF2; long-term azacitidine-treated resistant THP1 cells,complete restoration of tagraxofusp-mediated ADP ribosylation activity
same,"azacitidine dose response, resistant vs parental",CAL1 and THP1 cells; CAL1 parental and 3 SL-401 resistant subclones,increased sensitivity in resistant cells
same,"azacitidine cytotoxicity, resistant vs parental","CAL1 and THP1 cells; THP1, short-term (72 hour), cytotoxic doses",more sensitive to cytotoxic doses of azacitidine than parental cells
same,DPH1 protein levels after azacitidine,"DPH1; Western blot, resistant THP1 clones",partially or fully restored
same,DPH1 mRNA expression,"DPH1; azacitidine 300 nM, 2 days on/2 days off over 2 weeks, quantitative RT-PCR",partially restored mRNA expression
same,time to progression of peripheral blood leukemia burden,[1]; four-arm study,prolonged the time to progression of peripheral blood leukemia burden
same,DPH1 CpG DNA methylation,DPH1 locus,reduction in the DPH1 CpG DNA hypermethylation
Nc1ccn([C@@H]2O[C@H](CO)[C@@H](O)[C@@H]2O)c(=O)n1 [cytarabine],sensitivity of SL-401 resistant cells to chemotherapy,[2],more sensitive to chemotherapy compared to the parental cells
CC[C@]1(O)C[C@H]2CN(CCc3c([nH]c4ccccc34)[C@@](C(=O)OC)(c3cc4c(cc3OC)N(C=O)[C@H]3[C@@](O)(C(=O)OC)[C@H](OC(C)=O)[C@]5(CC)C=CCN6CC[C@]43[C@@H]65)C2)C1 [vincristine],sensitivity of SL-401 resistant cells to chemotherapy,[2],more sensitive to chemotherapy compared to the parental cells
tagraxofusp (protein) MGADDVVDSSKSFVMENFSSYHGTKPGYVDSIQKGIQKPKSGTQGNYDDDWKGFYSTDNKYDAAGYSVDNENPLSGKAGGVVKVTYPGLTKVLALKVDNAETIKKELGLSLTEPLMEQVGTEEFIKRFGDGASRVVLSLPFAEGSSSVEYINNWEQAKALSVELEINFETRGKRGQDAMYEYMAQACAGNRVRRSVGSSLSCINLDWDVIRDKTKTKIESLKEHGPIKNKVISESPNKTVSEEKAKQYLEEFHQTALEHPELSELKTVTGTNPVFAGANYAAWAVNVAQVIDSETADNLEKTTAALSILPGIGSVMGIADGAVHHNTEEIVAQSIALSSLMVAQAIPLVGELVDIGFAAYNFVESIINLFQVVHNSYNRPAYSPGHKTRPHMAPMTQTTSLKTSWVNCSNMIDEIITHLKQPPLPLLDFNNLNGEDQDILMENNLRRPNLEAFNRAVKSLQNASAIESILKNLLPCLPLATAAPTRHPIHIKDGDWNEFRRKLTFYLKTLENAQAQQTTLSLAW,ADP-ribosylation in lysates,eEF2; parental cells,caused ADP-ribosylation of a single protein
same,ADP-ribosylation in lysates,eEF2; tagraxofusp-resistant cells,unable to catalyze ADP-ribosylation of any proteins in the lysate
same,cytotoxicity,[3],potently and selectively cytotoxic
same,SL-401-dependent ADP ribosylation activity,THP1 human AML cells [4],diminished in the SL-401 resistant cells
same,anti-tumor efficacy,[5],in vivo anti-tumor efficacy
same,SL-401-dependent ADP ribosylation activity,THP1 human AML cells [6],diminished in the SL-401 resistant cells
same,spleen size,[1]; [9],reduction in splenomegaly
same,splenic infiltration,[1]; [9],decreased splenic infiltration of human BPDCN cells
same,mice remaining at 200 days,"[1]; four-arm study, n=10 mice per arm",one
same,progression-free survival,"[1]; one cycle, daily for 5 days, three PDXs combined, vehicle 12 days",48 days
same,overall survival,"[1]; one cycle, daily for 5 days, three PDXs combined, vehicle 35 days",71 days
same,reduction of leukemia burden vs vincristine/dexamethasone,"[1]; peripheral blood flow cytometry, most animals",longer sustained reduction in human BPDCN leukemia burden
same,residual CD45+CD123+ leukemia at 200 days,"[1]; peripheral blood, spleen, and bone marrow",detectable leukemia cells in spleen and bone marrow
same,effect of a second cycle,[1]; second cycle at progression,effective
same,response of PDX cohorts,"[1]; three cohorts, 100 ug/kg/day intraperitoneally x5 days",prolonged progression-free and overall survival
same,time to progression of peripheral blood leukemia burden,[1]; four-arm study,prolonged the time to progression of peripheral blood leukemia burden
same,safety,[7],Safety was shown at therapeutically active doses
"Tagraxofusp-APC: APC-tagged, fluorescently labeled tagraxofusp used for confocal microscopy (conjugate) MGADDVVDSSKSFVMENFSSYHGTKPGYVDSIQKGIQKPKSGTQGNYDDDWKGFYSTDNKYDAAGYSVDNENPLSGKAGGVVKVTYPGLTKVLALKVDNAETIKKELGLSLTEPLMEQVGTEEFIKRFGDGASRVVLSLPFAEGSSSVEYINNWEQAKALSVELEINFETRGKRGQDAMYEYMAQACAGNRVRRSVGSSLSCINLDWDVIRDKTKTKIESLKEHGPIKNKVISESPNKTVSEEKAKQYLEEFHQTALEHPELSELKTVTGTNPVFAGANYAAWAVNVAQVIDSETADNLEKTTAALSILPGIGSVMGIADGAVHHNTEEIVAQSIALSSLMVAQAIPLVGELVDIGFAAYNFVESIINLFQVVHNSYNRPAYSPGHKTRPHMAPMTQTTSLKTSWVNCSNMIDEIITHLKQPPLPLLDFNNLNGEDQDILMENNLRRPNLEAFNRAVKSLQNASAIESILKNLLPCLPLATAAPTRHPIHIKDGDWNEFRRKLTFYLKTLENAQAQQTTLSLAW",drug internalization,[8],internalized equally in resistant and parental cells

# Reference: patent US11674950B2, “Methods determining and treating cellular resistance to ADP-rtbosylating toxin” (priority 2017, dated 2023)
